The values that follow come from patent publication US20030129189A1, “Tumor necrosis factor-gamma” (priority 1994, published 2003).

One assay relates to HUVEC cells. In words: Induction of TNF-gamma-beta mRNA in HUVEC cells. The class given is cell-based, human. The conditions noted are these: for time of peak in expression of TNF-gamma-beta mRNA: after treatment; for TNF-gamma-beta mRNA level: stimulated HUVEC cells. As for the experimental part: More TNF-gamma-beta mRNA was detected than that of TNF-gamma-alpha using both methods.
Total RNA was isolated from human cell lines and primary cells using TriZOL (Invitrogen). TaqMan was carried out in a 25 μl reaction containing 25 ng of total RNA, 0.6 μM each of gene-specific forward and reverse primers and 0.2 μM of gene-specific fluorescence probe. […] Gene-specific PCR products were measured using an ABI PRISM 7700 Sequence Detection System following the manufacturer's instruction (PE Corp.).

The target of assay [1] is T1, TNF-gamma-beta (Homo sapiens, UniProt O95150).
T1 construct: made in house; host or cells: E. coli (untagged) or 293T (FLAG-tagged)
T1 sequence (O95150 72-251): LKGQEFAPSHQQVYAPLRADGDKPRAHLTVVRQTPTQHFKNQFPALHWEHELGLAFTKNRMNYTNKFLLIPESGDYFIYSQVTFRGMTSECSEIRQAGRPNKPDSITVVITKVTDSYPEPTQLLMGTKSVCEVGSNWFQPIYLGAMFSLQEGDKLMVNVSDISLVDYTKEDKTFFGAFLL
In words: Inhibition of TNF-gamma-beta activation of NF-κB in 293T cells. The class given is cell-based. As for the experimental part:
To avoid spontaneous apoptosis or NF-κB activation accompanied with DR3 overexpression, a limited amount of DR3-expression DNA that by itself minimally activated these pathways was used.
293T cells were transiently transfected using LipofectAMINE and PLUS reagents according to the manufacturer's instruction (Invitrogen). For reporter assays, 293T cells, at 5×10^5 cells/well, were seeded in 6-well plates and transfected with a total of 1 microgram of DNA. pC4 DNA was used as filler DNA. Conditioned supernatant was collected 24 hr post-transfection and assayed for secreted alkaline phosphatase (SEAP) activity using the Phospha-Light™ chemiluminescent reporter gene assay system (Tropix). pCMV-lacZ was used as internal control for transfection efficiency normalization.

Assay [2] deals with T2, full length TNF-gamma-beta on the cell surface (HEK293F stable transfectants; transfected cells) (human, UniProt O95150 1-251).
T2 construct: also called TNF-gamma-beta expressing cells
T2 sequence: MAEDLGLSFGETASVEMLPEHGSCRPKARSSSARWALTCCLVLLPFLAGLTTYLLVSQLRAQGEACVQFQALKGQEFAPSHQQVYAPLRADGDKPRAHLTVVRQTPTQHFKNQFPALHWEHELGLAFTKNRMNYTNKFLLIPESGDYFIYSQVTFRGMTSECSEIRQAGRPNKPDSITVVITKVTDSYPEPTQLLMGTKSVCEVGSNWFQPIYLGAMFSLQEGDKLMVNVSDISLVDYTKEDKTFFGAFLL
Kind of assay: flow cytometry on HEK293F cells expressing full length TNF-gamma-beta. As for the experimental part:
TR6 has been previously described as a decoy receptor (Pitti et al., Nature 396:699-703 (1998); Yu et al., J. Biol. Chem. 274:13733-6 (1999)) capable of competing with Fas and HveA for binding of FasL and LIGHT, respectively.
One million cells, in 0.1 ml of FACS buffer (PBS, 0.1% BSA, 0.1% NaN₃), were incubated with 0.1-1 microgram of protein or antibody at RT for 15 min. The cells were washed with 3 ml of FACS buffer, reacted with biotinylated primary antibody, and stained with PE-conjugated secondary antibody at RT for 15 min. Cells were then washed again, resuspended in 0.5 microgram/ml of propidium iodide, and live cells were gated and analyzed on a FACScan using the CellQuest software (BD Biosciences).

In assay [3] the target is T3, TNF-gamma-beta (Homo sapiens, UniProt O95150).
T3 construct: made in house; host or cells: 293T cells, transient transfection
T3 sequence (O95150 72-251 limits assumed): T1 sequence (O95150 72-251)
In words: Coimmunoprecipitation of TNF-gamma-beta by TNFR-Fc proteins. The assay is classed as binding. The text has this:
The beads were then precipitated and washed extensively with PBST buffer (PBS, 0.5% Triton X-100) before boiled in SDS-sample buffer. Proteins were resolved on 4-20% Tris-Glycine gels (NOVEX), transferred to nitrocellulose membranes, and blotted with anti-Flag M2 monoclonal antibody (1 microgram/ml, Sigma) andhorseradish peroxidase (HRP)-conjugated goat anti-mouse IgG antibody (0.5 microgram/ml).

In the next assay the test system is CB6F1 mice. Kind of assay: Parent-into-F1 acute graft-versus-host (in vivo MLR) model. Set-up: species or system mouse. To be noted: 3 mg/kg/day i.v. for 5 days. As for the experimental part:
Briefly, CB6F1 mice were injected with 1.5×10^8 pooled spleen cells of C57BL/6 mice administered intravenously on day 0.
The F1 (CB6F1) of C57BL/6×BALB/c mice (H-2^bxd) were transfused intravenously with 1.5×10^8 spleen cells from C57BL/6 mice (H-2^b) on day 0. […] The spleens of the recipient F1 mice were harvested on day 5, weighed and single cell suspensions prepared for in vitro assays.
Splenocytes from normal and the transfused F1 mice were cultured in triplicate in 96-well flat-bottomed plates (4×10^5 cells/200 microliters/well) for 2-4 days. After removing 100 microliters of supernatant per well on the day of harvest, 10 microliters Alamar Blue (Biosource) was added to each well and the cells cultured for additional 4 h. The cell number in each well was assessed according to OD590 nm minus OD530 nm background, using a CytoFluor apparatus (PerSeptive Biosystems). Cytokines in the culture supernatant were measured with commercial ELISA kits from Endogen or R & D Systems following manufacturer's instructions.

Like-named read-outs stand apart in the source and are kept apart here.

Turning to `CCCCCCCCCCCCCC(=O)O[C@@H]1[C@@H](C)[C@@]2(O)[C@@H](C=C(CO)C[C@]3(O)C(=O)C(C)=C[C@@H]23)[C@@H]2C(C)(C)[C@]12OC(C)=O` [PMA, reference compound], in the assay on HUVEC cells, the “time of peak in expression of TNF-gamma-beta mRNA” value is 6 h and the “TNF-gamma-beta mRNA level” value is reported as “rapidly induced high levels of TNF-gamma-beta mRNA”.
As to “TNFR1.Fc: Fc-fusion of TNFR1, control receptor [reference compound]”, the “inhibition of TNF-gamma-beta activation of NF-κB” value in the assay with TNF-gamma-beta [1] is “not able to inhibit”; with TNF-gamma-beta [1] (listed as TNFR1-Fc), “but not by the addition of Fas-Fc or TNFR1-Fc”.
As to “bFGF: growth factor stimulus of HUVEC cells [reference compound]”, the “TNF-gamma-beta mRNA level” value in the assay with HUVEC cells was “did not significantly affect the expression of TNF-gamma-beta”.

B1: Fc-fusion form of the extracellular domain of AITR (Fc fusion, UniProt Q9Y5U5 26-162, looked up)
chain: QRPTGGPGCGPGRLLLGTGTDARCCRVHTTRCCRDYPGEECCSEWDCMCVQPEFHCGDPCCTTCRHHPCPPGQGVQSQGKFSFGFQCIDCASGTFSGGHEGHCKPWTDCTQFGFLTVFPGNKTHNAVCVPGSPPAEP
notes: extracellular domain; not shown: Fc part of the fusion
Turning to B1, in assay [2], the binding result was “no binding”.

B2: Fas-Fc: extracellular domain of Fas (aa 1-169) fused to Fc of human IgG1 (protein)
chain: QVTDINSKGLELRKTVTTVETQNLEGLHHDGQFCHKPCPPGERKARDCTVNGDEPDCVPCQEGKEYTDKAHFSSKCRRCRLCDEGHGLEVEINCTRTQNTKCRCKPNFFCNSTVCEHCDPCTKCEHGIIKECTLTSNTKCKEEG
modifications: left off: a dimerising Fc or GST
notes: extracellular domain of Fas (aa 1-169) fused to Fc of human IgG1
Regarding B2, the “immunoprecipitation of TNF-gamma-beta” value with TNF-gamma-beta [3] was “could not immunoprecipitate FLAG-TNF-gamma-beta”. Further, in the assay with TNF-gamma-beta [1], the “inhibition of TNF-gamma-beta activation of NF-κB” value was “but not by the addition of Fas-Fc or TNFR1-Fc”.

B3: Fc-fusion form of the extracellular domain of OX40 (Fc fusion, UniProt P43489 29-214, looked up)
chain: LHCVGDTYPSNDRCCHECRPGNGMVSRCSRSQNTVCRPCGPGFYNDVVSSKPCKPCTWCNLRSGSERKQLCTATQDTVCRCRAGTQPLDSYKPGVDCAPCPPGHFSPGDNQACKPWTNCTLAGKHTLQPASNSSDAICEDRDPPATQPQETQGPPARPITVQPTEAWPRTSQGPSTRPVEVPGGRA
notes: as for B1
As to B3, in assay [2], the binding result was “no binding”.

B4: TNFR1-Fc (Fc fusion, UniProt P19438 30-211, looked up)
chain: LVPHLGDREKRDSVCPQGKYIHPQNNSICCTKCHKGTYLYNDCPGPGQDTDCRECESGSFTASENHLRHCLSCSKCRKEMGQVEISSCTVDRDTVCGCRKNQYRHYWSENLFQCFNCSLCLNGTVHLSCQEKQNTVCTCHAGFFLRENECVSCSNCKKSLECTKLCLPQIENVKGTEDSGTT
notes: extracellular domain; also called Fc-fusion form of the extracellular domain of TNFR1; not shown: Fc part of the fusion
Take B4: the binding result in assay [2] is on record as “no binding”.

B5: Fc-fusion form of the extracellular domain of DcR2 (Fc fusion, UniProt Q9UBN6 56-211, looked up)
chain: ATIPRQDEVPQQTVAPQQQRRSLKEEECPAGSHRSEYTGACNPCTEGVDYTIASNNLPSCLLCTVCKSGQTNKSSCTTTRDTVCQCEKGSFQDKNSPEMCRTCRTGCPRGMVKVSNCTPRSDIKCKNESAASSTGKTPAAEETVTTILGMLASPYH
notes: as for B1
On to B5, for which, in assay [2], the binding result is “no binding”.

B6: TL5: another TNF family ligand used here as a control (protein, UniProt O43557 83-240, looked up)
Tumor necrosis factor ligand …: LIQERRSHEVNPAAHLTGANSSLTGSGGPLLWETQLGLAFLRGLSYHDGALVVTKAGYYYIYSKVQLGGVGCPLGLASTITHGLYKRTPRYPEELELLVSQQSPCGRATSSSRVWWDSSFLGGVVHLEAGEKVVVRVLDERLVRLRDGTRSYFGAFMV
With B6, in the assay on CB6F1 mice, the “IL-2 production vs buffer group” value was “neither TNF-gamma-beta nor TL5 show any significant effect”, the “IL-12 production vs buffer group” value is reported as “neither TNF-gamma-beta nor TL5 show any significant effect”, the “spleen weight vs buffer group” value is recorded as “no statistically significant difference from buffer group” and the “spontaneous (ex-vivo) splenocyte proliferation vs buffer group” value is “no statistically significant difference from buffer group”. In the assay with CB6F1 mice (splenocytes), the “GM-CSF production vs buffer group” value is “no statistically significant difference from buffer group” and the “INF-gamma production vs buffer group” value is “no statistically significant difference from buffer group”.

B7: Fc-fusion form of the extracellular domain of RANK (Fc fusion, UniProt Q9Y6Q6 30-212, looked up)
chain: IAPPCTSEKHYEHLGRCCNKCEPGKYMSSKCTTTSDSVCLPCGPDEYLDSWNEEDKCLLHKVCDTGKALVAVVAGNSTTPRRCACTAGYHWSQDCECCRRNTECAPGLGAQHPLQLNKDTVCKPCLAGYFSDAFSSTDKCRPWTNCTFLGKRVEHHGTEKSDAVCSSSLPARKPPNEPHVYLP
notes: as for B1
In the case of B7, in assay [2], the binding result is on record as “no binding”.

B8: IFNγ: cytokine stimulus of HUVEC cells (protein, UniProt P01579 24-161, looked up)
Interferon gamma: QDPYVKEAENLKKYFNAGHSDVADNGTLFLGILKNWKEESDRKIMQSQIVSFYFKLFKNFKDDQSIQKSVETIKEDMNVKFFNSNKKKRDDFEKLTNYSVTDLNVQRKAIHELIQVMAELSPAAKTGKRKRSQMLFRG
For the molecule B8, in the assay on HUVEC cells, the “TNF-gamma-beta mRNA level” value was “did not significantly affect the expression of TNF-gamma-beta”.

B9: IL-1α: cytokine stimulus of HUVEC cells (protein, UniProt P01583 113-271, looked up)
Interleukin-1 alpha: SAPFSFLSNVKYNFMRIIKYEFILNDALNQSIIRANDQYLTAAALHNLDEAVKFDMGAYKSSKDDAKITVILRISKTQLYVTAQDEDQPVLLKEMPEIPKTITGSETNLLFFWETHGTKNYFTSVAHPNLFIATKQDYWVCLAGGPPSITDFQILENQA
In the case of B9, in the assay on HUVEC cells, the “time of peak in expression of TNF-gamma-beta mRNA” value worked out at 6 h and the “TNF-gamma-beta mRNA level” value is “rapidly induced high levels of TNF-gamma-beta mRNA”.

B10: TACI-Fc: extracellular domain of TACI (aa 1-159) fused to Fc of human IgG1 (protein)
chain: MSGLGRSRRGGRSRVDQEERFPQGLWTGVAMRSCPEEQYWDPLLGTCMSCKTICNHQSQRTCAAFCRSLSCRKEQGKFYDHLLRDCISCASICGQHPKQCAYFCENKLRSPVNLPPELRRQRSGEVENNSDNSGRYQGLEHRGSEASPALPGLKLSADQ
modifications: left off: a dimerising Fc or GST
notes: extracellular domain of TACI (aa 1-159) fused to Fc of human IgG1
With B10, the “immunoprecipitation of TNF-gamma-beta” value with TNF-gamma-beta [3] is reported as “could not immunoprecipitate FLAG-TNF-gamma-beta”.

B11: Fc-fusion form of the extracellular domain of DcR1 (Fc fusion, UniProt O14798 26-221, looked up)
chain: ATTARQEEVPQQTVAPQQQRHSFKGEECPAGSHRSEHTGACNPCTEGVDYTNASNNEPSCFPCTVCKSDQKHKSSCTMTRDTVCQCKEGTFRNENSPEMCRKCSRCPSGEVQVSNCTSWDDIQCVEEFGANATVETPAAEETMNTSPGTPAPAAEETMNTSPGTPAPAAEETMTTSPGTPAPAAEETMTTSPGTPA
notes: as for B1
Regarding B11, in assay [2], the binding result is recorded as “no binding”.
